Results published in PMC11574045, “A cofactor-induced repressive type of transcription factor condensation can be induced by synthetic peptides to suppress tumorigenesis” (The EMBO Journal, 2024).

Tested on: HEK293FT cells transfected with TF library
Assay: Screening of TF condensates based on fluorescent puncta
Type: cell-based
Conditions: Figure 1B numerical data; TF library screen, one value per transcriptional factor
Summary of the method: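 HEK293FT cells were reverse-transfected with Flag- or GAL4-tagged TF plasmids (1.6 μg/ml, PEI). After 60 h, cells were cultured 12 h with or without glucose, then fixed and immunostained with anti-Flag or anti-GAL4 and Alexa 488 secondaries. Fluorescent puncta were imaged over fifty random fields per well by high-content imaging.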

| Molecule | Z score of condensed fraction |
| --- | --- |
| CEBPG (protein, UniProt P53567 1-150, looked up) CCAAT/enhancer-binding …: MSKISQQNSTPGVNGISVIHTQAHASGLQQVPQLVPAGPGGGGKAVAPSKQSKKSSPMDRNSDEYRQRRERNNMAVKKSRLKSKQKAQDTLQRVNQLKEENERLEAKIKLLTKELSVLKDLFLEHAHNLADNVQSISTENTTADGDNAGQ | 0.2566 |
| AATF (protein, UniProt Q9JKX4 2-526, looked up) Protein AATF: AAPQPLALQLEQLLNPRPREADPEADPEEATRARVIDRFDEGEEEKDDLAVSSIRKLAPVSLLDTDKRYSGKTTSRKAWKEDHWEQALPSSSDNEASDEGGSEDGDSEGLGLEEISEDVDEDLEDNKISDEGGSEDGDSEGLGLEEFSEDVEEDLEGEDEEDREEDRNSEDDGVVAAFSSVKVSEEVEKGRAVKNQIALWDQLLEGRIKLQKALLTTNQLPQPDVFPVFKDKGGPEFASALKNSHKALKALLRSLVDLQEELLFQYPDTRHIVNGAKPNTESEEISSEDDELVGEKKKQRKAPPKRKLEMEDYPSFMAKRFADFTIYRNHTLQKWHDKTKLASGKLGKGFGAFERSILTQIDHIMMDKERLLRRTQTKRSAYRVLGKPEPVPEPVAETLPGEPETLPQGPANAHLRDLDEEIFDDDDFYHQLLRELIERKTSSLDPNDQVAMGRQWLAIQKLRSKIRKKVDRKASKGRKLRFHVLSKLLSFMAPIDHTAMSDDARTELFRSLFGQLNPPDADRGK | -0.6879 |
| ABT1 (protein, UniProt Q9ULW3 1-272, looked up) Activator of basal …: MEAEESEKAATEQEPLEGTEQTLDAEEEQEESEEAACGSKKRVVPGIVYLGHIPPRFRPLHVRNLLSAYGEVGRVFFQAEDRFVRRKKKAAAAAGGKKRSYTKDYTEGWVEFRDKRIAKRVAASLHNTPMGARRRSPFRYDLWNLKYLHRFTWSHLSEHLAFERQVRRQRLRAEVAQAKRETDFYLQSVERGQRFLAADGDPARPDGSWTFAQRPTEQELRARKAARPGGRERARLATAQDKARSNKGLLARIFGAPPPSESMEGPSLVRDS | -0.3156 |
| CEBPE (protein, UniProt Q15744 1-281, looked up) CCAAT/enhancer-binding …: MSHGTYYECEPRGGQQPLEFSGGRAGPGELGDMCEHEASIDLSAYIESGEEQLLSDLFAVKPAPEARGLKGPGTPAFPHYLPPDPRPFAYPPHTFGPDRKALGPGIYSSPGSYDPRAVAVKEEPRGPEGSRAASRGSYNPLQYQVAHCGQTAMHLPPTLAAPGQPLRVLKAPLATAAPPCSPLLKAPSPAGPLHKGKKAVNKDSLEYRLRRERNNIAVRKSRDKAKRRILETQQKVLEYMAENERLRSRVEQLTQELDTLRNLFRQIPEAANLIKGVGGCS | -0.2607 |
| ZSCAN10 (protein, UniProt Q96SZ4 1-780, looked up) Zinc finger and SCAN …: MLGESVPAAVEQEQLGEVKLEEEEAVSPEDPRRPESRLRPEVAHQLFRCFQYQEDMGPRASLSRLRELCGHWLRPALHTKKQILELLVLEQFLSVLPPHLLGRLQGQPLRDGEEVVLLLEGIHREPSHAGPLDFSCNAGKSCPRADVTLEEKGCASQVPSHSPKKELPAEEPSVLGPSDEPPRPQPRAAQPAEPGQWRLPPSSKQPLSPGPQKTFQALQESSPQGPSPWPEESSRDQELAAVLECLTFEDVPENKAWPAHPLGFGSRTPDKEEFKQEEPKGAAWPTPILAESQADSPGVPGEPCAQSLGRGAAASGPGEDGSLLGSSEILEVKVAEGVPEPNPELQFICADCGVSFPQLSRLKAHQLRSHPAGRSFLCLCCGKSFGRSSILKLHMRTHTDERPHACHLCGHRFRQSSHLSKHLLTHSSEPAFLCAECGRGFQRRASLVQHLLAHAQDQKPPCAPESKAEAPPLTDVLCSHCGQSFQRRSSLKRHLRIHARDKDRRSSEGSGSRRRDSDRRPFVCSDCGKAFRRSEHLVAHRRVHTGERPFSCQACGRSFTQSSQLVSHQRVHTGEKPYACPQCGKRFVRRASLARHLLTHGGPRPHHCTQCGKSFGQTQDLARHQRSHTGEKPCRCSECGEGFSQSAHLARHQRIHTGEKPHACDTCGHRFRNSSNLARHRRSHTGERPYSCQTCGRSFRRNAHLRRHLATHAEPGQEQAEPPQECVECGKSFSRSCNLLRHLLVHTGARPYSCTQCGRSFSRNSHLLRHLRTHARETLY | -0.1901 |
| CLOCK (protein, UniProt O15516 1-846, looked up) Circadian locomoter output …: MLFTVSCSKMSSIVDRDDSSIFDGLVEEDDKDKAKRVSRNKSEKKRRDQFNVLIKELGSMLPGNARKMDKSTVLQKSIDFLRKHKEITAQSDASEIRQDWKPTFLSNEEFTQLMLEALDGFFLAIMTDGSIIYVSESVTSLLEHLPSDLVDQSIFNFIPEGEHSEVYKILSTHLLESDSLTPEYLKSKNQLEFCCHMLRGTIDPKEPSTYEYVKFIGNFKSLNSVSSSAHNGFEGTIQRTHRPSYEDRVCFVATVRLATPQFIKEMCTVEEPNEEFTSRHSLEWKFLFLDHRAPPIIGYLPFEVLGTSGYDYYHVDDLENLAKCHEHLMQYGKGKSCYYRFLTKGQQWIWLQTHYYITYHQWNSRPEFIVCTHTVVSYAEVRAERRRELGIEESLPETAADKSQDSGSDNRINTVSLKEALERFDHSPTPSASSRSSRKSSHTAVSDPSSTPTKIPTDTSTPPRQHLPAHEKMVQRRSSFSSQSINSQSVGSSLTQPVMSQATNLPIPQGMSQFQFSAQLGAMQHLKDQLEQRTRMIEANIHRQQEELRKIQEQLQMVHGQGLQMFLQQSNPGLNFGSVQLSSGNSSNIQQLAPINMQGQVVPTNQIQSGMNTGHIGTTQHMIQQQTLQSTSTQSQQNVLSGHSQQTSLPSQTQSTLTAPLYNTMVISQPAAGSMVQIPSSMPQNSTQSAAVTTFTQDRQIRFSQGQQLVTKLVTAPVACGAVMVPSTMLMGQVVTAYPTFATQQQQSQTLSVTQQQQQQSSQEQQLTSVQQPSQAQLTQPPQQFLQTSRLLHGNPSTQLILSAAFPLQQSTFPQSHHQQHQSQQQQQLSRHRTDSLPDPSKVQPQ | -0.2095 |
| ZSCAN1 (protein, UniProt Q8NBB4 1-408, looked up) Zinc finger and SCAN …: MLPRPKAPASPRRPQTPTPSEQDADPGPASPRDTEAQRLRFRQFQYHVASGPHLALGQLWTLCRQWLRPEARSKEQMLELLVLEQFLGALPSKMRTWVQSQGPRSCREAASLVEDLTQMCQQEVLVSLDSVEPQDWSFGEEEDGKSPRSQKEPSQASELILDAVAAAPALPEESEWLETTQLQQSLHTRAEAEAPRAPGLLGSRARLPLKPSIWDEPEDLLAGPSSDLRAEGTVISSPKGPSAQRISPRRRNRNTDQSGRHQPSLKHTKGGTQEAVAGISVVPRGPRGGRPFQCADCGMVFTWVTHFIEHQKTHREEGPFPCPECGKVFLHNSVLTEHGKIHLLEPPRKKAPRSKGPRESVPPRDGAQGPVAPRSPKRPFQCSVCGKAFPWMVHLIDHQKLHTAHGHM | 1.179 |
| ZXDA (protein, UniProt P98168 1-799, looked up) Zinc finger X-linked protein …: MEIPKLLPARGTLQGGGGGGIPAGGGRVHRGPDSPAGQVPTRRLLLPRGPQDGGPGRRREEASTASRGPGPSLFAPRPHQPSGGGDDFFLVLLDPVGGDVETAGSGQAAGPVLREEAKAGPGLQGDESGANPAGCSAQGPHCLSAVPTPAPISAPGPAAAFAGTVTIHNQDLLLRFENGVLTLATPPPHAWEPGAAPAQQPRCLIAPQAGFPQAAHPGDCPELRSDLLLAEPAEPAPAPAPQEEAEGLAAALGPRGLLGSGPGVVLYLCPEALCGQTFAKKHQLKMHLLTHSSSQGQRPFKCPLGGCGWTFTTSYKLKRHLQSHDKLRPFGCPAEGCGKSFTTVYNLKAHMKGHEQENSFKCEVCEESFPTQAKLGAHQRSHFEPERPYQCAFSGCKKTFITVSALFSHNRAHFREQELFSCSFPGCSKQYDKACRLKIHLRSHTGERPFLCDFDGCGWNFTSMSKLLRHKRKHDDDRRFMCPVEGCGKSFTRAEHLKGHSITHLGTKPFVCPVAGCCARFSARSSLYIHSKKHLQDVDTWKSRCPISSCNKLFTSKHSMKTHMVKRHKVGQDLLAQLEAANSLTPSSELTSQRQNDLSDAEIVSLFSDVPDSTSAALLDTALVNSGILTIDVASVSSTLAGHLPANNNNSVGQAVDPPSLMATSDPPQSLDTSLFFGTAATGFQQSSLNMDEVSSVSVGPLGSLDSLAMKNSSPEPQALTPSSKLTVDTDTLTPSSTLCENSVSELLTPAKAEWSVHPNSDFFGQEGETQFGFPNAAGNHGSQKERNLITVTGSSFLV | -0.8138 |
| CJUN (protein, UniProt P05412 1-331, looked up) Transcription factor Jun: MTAKMETTFYDDALNASFLPSESGPYGYSNPKILKQSMTLNLADPVGSLKPHLRAKNSDLLTSPDVGLLKLASPELERLIIQSSNGHITTTPTPTQFLCPKNVTDEQEGFAEGFVRALAELHSQNTLPSVTSAAQPVNGAGMVAPAVASVAGGSGSGGFSASLHSEPPVYANLSNFNPGALSSGGGAPSYGAAGLAFPAQPQQQQQPPHHLPQQMPVQHPRLQALKEEPQTVPEMPGETPPLSPIDMESQERIKAERKRMRNRIAASKCRKRKLERIARLEEKVKTLKAQNSELASTANMLREQVAQLKQKVMNHVNSGCQLMLTQQLQTF | 2.466 |
| CEBPD (protein, UniProt P49716 2-269, looked up) CCAAT/enhancer-binding …: SAALFSLDGPARGAPWPAEPAPFYEPGRAGKPGRGAEPGALGEPGAAAPAMYDDESAIDFSAYIDSMAAVPTLELCHDELFADLFNSNHKAGGAGPLELLPGGPARPLGPGPAAPRLLKREPDWGDGDAPGSLLPAQVAACAQTVVSLAAAGQPTPPTSPEPPRSSPRQTPAPGPAREKSAGKRGPDRGSPEYRQRRERNNIAVRKSRDKAKRRNQEMQQKLVELSAENEKLHQRVEQLTRDLAGLRQFFKQLPSPPFLPAAGTADCR | -0.4872 |
| ZZZ3 (protein, UniProt Q8IYH5 1-903, looked up) ZZ-type zinc …: MAASRSTRVTRSTVGLNGLDESFCGRTLRNRSIAHPEEISSNSQVRSRSPKKRPEPVPIQKGNNNGRTTDLKQQSTRESWVSPRKRGLSSSEKDNIERQAIENCERRQTEPVSPVLKRIKRCLRSEAPNSSEEDSPIKSDKESVEQRSTVVDNDADFQGTKRACRCLILDDCEKREIKKVNVSEEGPLNSAVVEEITGYLAVNGVDDSDSAVINCDDCQPDGNTKQNSIGSYVLQEKSVAENGDTDTQTSMFLDSRKEDSYIDHKVPCTDSQVQVKLEDHKIVTACLPVEHVNQLTTEPATGPFSETQSSLRDSEEEVDVVGDSSASKEQCKENTNNELDTSLESMPASGEPEPSPVLDCVSAQMMSLSEPQEHRYTLRTSPRRAAPTRGSPTKNSSPYRENGQFEENNLSPNETNATVSDNVSQSPTNPGEISQNEKGICCDSQNNGSEGVSKPPSEARLNIGHLPSAKESASQHITEEEDDDPDVYYFESDHVALKHNKDYQRLLQTIAVLEAQRSQAVQDLESLGRHQREALKNPIGFVEKLQKKADIGLPYPQRVVQLPEIVWDQYTHSLGNFEREFKNRKRHTRRVKLVFDKVGLPARPKSPLDPKKDGESLSYSMLPLSDGPEGSSSRPQMIRGRLCDDTKPETFNQLWTVEEQKKLEQLLIKYPPEEVESRRWQKIADELGNRTAKQVASRVQKYFIKLTKAGIPVPGRTPNLYIYSKKSSTSRRQHPLNKHLFKPSTFMTSHEPPVYMDEDDDRSCFHSHMNTAVEDASDDESIPIMYRNLPEYKELLQFKKLKKQKLQQMQAESGFVQHVGFKCDNCGIEPIQGVRWHCQDCPPEMSLDFCDSCSDCLHETDIHKEDHQLEPIYRSETFLDRDYCVSQGTSYNYLDPNYFPANR | -0.9122 |
